Assays:
Assay in all cases: NanoBRET
[1] = target: Halo-SSX-C^E184* (SSX-C mutant lacking the last five amino acids); details: live HEK293T cells; mean ± S.E.M of n = 3 biological replicates; parent: est. 40; read off a plot
[2] = target: Halo-SSX-C^ΔRD (SSX-C with a deletion of the SSXRD); details: live HEK293T cells; mean ± S.E.M of n = 3 biological replicates; parent: est. 19; read off a plot
[3] = target: Halo-SSX-C (HaloTag fused to the SSX1 C-terminal region present in SS18-SSX1); details: live HEK293T cells; mean ± S.E.M of n = 3 biological replicates; parent: est. 72; read off a plot

histone H2A fused to NanoLuc luciferase (NLuc-H2A) (from UniProt P0C0S8) K118R; K119R
response [1]: 36 mBU | response [2]: 16 mBU | response [3]: 42 mBU
